Measurements published in FireProtDB (doi:10.1021/bi5005975).
Where “and” joins values, the source holds several entries; their conditions need not be identical. Identical values can stand only once.

Settings: Amphitrite ornata, pH 7, transition: 2, reversible: yes, whole UniProt chain shown; for denaturant midpoint (higher = more stable) / unfolding free energy: 20 °C; for Tm / unfolding enthalpy (calorimetric) / unfolding enthalpy (van 't Hoff): Thermal
[1] = GdnHCl, UV?visible spectrophotometer, potassium phosphate 100 mM
[2] = Urea, UV?visible spectrophotometer, potassium phosphate 100 mM
[3] = DSC, degassed buffer (potassium phosphate) 100 mM

Row | Protein | denaturant midpoint (higher = more stable) [1] [M] | unfolding free energy [1] [kcal/mol] | denaturant midpoint (higher = more stable) [2] [M] | unfolding free energy [2] [kcal/mol] | Tm [3] | unfolding enthalpy (calorimetric) [3] | unfolding enthalpy (van 't Hoff) [3] | Tm (UV?visible spectrophotometer, potassium phosphate 100 mM) [°C]
1 | wild type, Q9NAV7 (protein) MGFKQDIATLRGDLRTYAQDIFLAFLNKYPDEKRNFKNYVGKSDQELKSMAKFGDHTEKVFNLMMEVADRATDCVPLASDASTLVQMKQHSGLTTGNFEKLFVALVEYMRASGQSFDSQSWDRFGKNLVSALSSAGMK | 1.09 | 2.21 | 4.12 | 2.42 | 47.7 °C and 48.6 °C | 165 kcal/mol and 166 kcal/mol | 336 kcal/mol and 396 kcal/mol | 46
2 | wild type, Q9NAV8 (protein) MGFKQDIATIRGDLRTYAQDIFLAFLNKYPDERRYFKNYVGKSDQELKSMAKFGDHTEKVFNLMMEVADRATDCVPLASDANTLVQMKQHSSLTTGNFEKLFVALVEYMRASGQSFDSQSWDRFGKNLVSALSSAGMK |  |  |  |  | 50.5 °C and 49.8 °C | 183 kcal/mol and 163 kcal/mol | 384 kcal/mol and 412 kcal/mol | 
